For the data set, the target named is chemically acetylated cytochrome c.

B1: cell derived SIRT3-GFP (pull down from 293T cell extracts) (protein)
chain: MAFWGWRAAAALRLWGRVVERVEAGGGVGPFQACGCRLVLGGRDDVSAGLRGSHGARGEPLDPARPLQRPPRPEVPRAFRRQPRAAAPSFFFSSIKGGRRSISFSVGASSVVGSGGSSDKGKLSLQDVAELIRARACQRVVVMVGAGISTPSGIPDFRSPGSGLYSNLQQYDLPYPEAIFELPFFFHNPKPFFTLAKELYPGNYKPNVTHYFLRLLHDKGLLLRLYTQNIDGLERVSGIPASKLVEAHGTFASATCTVCQRPFPGEDIRADVMADRVPRCPVCTGVVKPDIVFFGEPLPQRFLLHVVDFPMADLLLILGTSLEVEPFASLTEAVRSSVPRLLINRDLVGPLAWHPRSRDVAQLGDVVHGVESLVELLGWTEEMRDLVQRETGKLDGPDK
Turning to B1, the “deacetylation activity, 14C-nicotinamide release assay in vitro” value is recorded as “cell derived SIRT3 deacetylates cytochrome c”.

B2: recombinant GST-SIRT2 (protein)
chain: MAEPDPSHPLETQAGKVQEAQDSDSDSEGGAAGGEADMDFLRNLFSQTLSLGSQKERLLDELTLEGVARYMQSERCRRVICLVGAGISTSAGIPDFRSPSTGLYDNLEKYHLPYPEAIFEISYFKKHPEPFFALAKELYPGQFKPTICHYFMRLLKDKGLLLRCYTQNIDTLERIAGLEQEDLVEAHGTFYTSHCVSASCRHEYPLSWMKEKIFSEVTPKCEDCQSLVKPDIVFFGESLPARFFSCMQSDFLKVDLLLVMGTSLQVQPFASLISKAPLSTPRLLINKEKAGQSDPFLGMIMGLGGGMDFDSKKAYRDVAWLGECDQGCLALAELLGWKKELEDLVRREHASIDAQSGAGVPNPSTSASPKKSPPPAKDEARTTEREKPQ
In the case of B2, the “deacetylation activity, tritiated acetate release assay in vitro, with and without NAD” value is “recombinant GST-SIRT2 deacetylates cytochrome c in a NAD dependent manner”.

B3: recombinant GST-SIRT3 (fragment of human SIRT3 lacking the first 100 amino acids of the N-terminus) (protein)
chain: SISFSVGASSVVGSGGSSDKGKLSLQDVAELIRARACQRVVVMVGAGISTPSGIPDFRSPGSGLYSNLQQYDLPYPEAIFELPFFFHNPKPFFTLAKELYPGNYKPNVTHYFLRLLHDKGLLLRLYTQNIDGLERVSGIPASKLVEAHGTFASATCTVCQRPFPGEDIRADVMADRVPRCPVCTGVVKPDIVFFGEPLPQRFLLHVVDFPMADLLLILGTSLEVEPFASLTEAVRSSVPRLLINRDLVGPLAWHPRSRDVAQLGDVVHGVESLVELLGWTEEMRDLVQRETGKLDGPDK
As for B3, the “deacetylation activity, tritiated acetate release assay in vitro, with and without NAD” value is reported as “recombinant GST-SIRT3 deacetylates cytochrome c in a NAD dependent manner”.

(Values after patent US7575883.)
